According to patent US6355785:

Tests used:
[1] = target: HIV-1 gp120 (Human immunodeficiency virus 1) (UniProt P04578); assay: competition; details: ID50 for gp120, gp120-CD4 interaction
[2] = target: HIV-1 integrase wild-type (IN1-288) (Human immunodeficiency virus 1) (UniProt P12497); assay: inhibition; details: I, 3'-processing
[3] = target: T1, SIV integrase (Simian immunodeficiency virus) (UniProt P05897); assay: inhibition; details: PS at first and last internucleoside linkages (pPT), 3'-OH; 3'-processing
T1 sequence: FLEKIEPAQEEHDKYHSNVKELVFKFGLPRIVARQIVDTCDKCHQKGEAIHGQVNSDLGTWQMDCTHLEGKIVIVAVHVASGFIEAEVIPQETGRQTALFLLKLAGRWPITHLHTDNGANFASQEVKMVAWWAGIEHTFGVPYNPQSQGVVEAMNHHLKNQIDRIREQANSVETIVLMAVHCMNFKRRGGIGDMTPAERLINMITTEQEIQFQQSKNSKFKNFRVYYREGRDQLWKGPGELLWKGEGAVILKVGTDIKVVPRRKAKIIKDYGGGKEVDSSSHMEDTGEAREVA

Sequence: GATCCATGTCAGTGACAC [1232 random GATC]
- IC50 ([1]; PS all linkages, 3'-amine): > 10000 nM

Sequence: GTGGTGGGTGGGTGGGTGGTGGGTGGTGGTTGTGGGTGGGTGGTG [I100-21]
- IC50 ([1]; PS all linkages, 3'-amine): 70 nM

Sequence: GTTGGGGGTTGTTGGTGGGGTGGTGG [I100-00]
- IC50 ([1]; phosphodiester, 3'-propanolamine): 3500 nM

Sequence: TCTTCCTCTCTCTACCCACGCTCIC [T30662 antisense GEM91 variant pPT]
- IC50 ([2]; PS at first and last linkages (pPT), strand transfer >0.5): > 500 nM

Sequence: GTGGTGGGTGGGTGGGT [T30177 (AR177)]
- IC50 [3]: 420 nM

Sequence: GGGTGGGTGGGTGGGTGG [1174]
- IC50 ([1]; PS all linkages, 3'-amine): 90 nM

Sequence: GGGTGGGTGGGTGGGTGG [1173]
- IC50 ([1]; phosphodiester, 3'-amine): > 100000 nM

Sequence: GTGGTGGGTGGGTGGGTGGTGGGTGGTGGTTGTGGGTGGGTGGTG [I100-07]
- IC50 ([1]; phosphodiester, 3'-amine): 800 nM

Sequence: TCTTCCTCTCTCTACCCACGCTCIC [T30531 antisense GEM91 variant PT]
- IC50 ([2]; PS all linkages, strand transfer 0.036): 30 nM

Sequence: GATCCATGTCAGTGACAC [1231 random GATC]
- IC50 ([1]; phosphodiester, 3'-amine): > 100000 nM

Sequence: TCTTCCTCTCTCTACCCACGCTCIC [T30658 antisense GEM91 variant PD]
- IC50 ([2]; all phosphodiester, strand transfer >0.5): > 500 nM

Sequence: GTTGGGGGTTGTTGGTGGGGTGGTGG [I100-12]
- IC50 ([1]; PS all linkages, 3'-amine): 80 nM
